Assay results from paper PMC10063552.

How the values were obtained:
Assay in all cases: enzyme inhibition assay (cleavage of a chromogenic substrate, fit to Morrison's tight binding equation); MMP-2ACT (0.6 nM), MMP-9CAT (3 nM) or MMP-14CAT (1 nM) incubated with 0-25 nM N-TIMP2 variant in 50 mM HEPES, 10 mM CaCl2, 0.05% Brij-35, 1 mM DTNB, pH 7.5, 1 h at 37 °C; then 100 µM chromogenic substrate, absorbance at 412 nm at 37 °C; Ki from three independent experiments
[1] = target: activated MMP-2 (MMP-2ACT) (human)
[2] = target: human MMP-14 catalytic domain (MMP-14CAT) (human) (UniProt P50281)
[3] = target: human MMP-9 catalytic domain (MMP-9CAT) (human) (UniProt P14780)

Substance	Ki [1] [nM]	Ki [2] [nM]	Ki [3] [nM]
N-TIMP2-S2HqAla (from UniProt P16035 27-153) (domain or fragment)	97.7	97.7	70.4
N-TIMP2-S2DOPA (from UniProt P16035 27-153) (domain or fragment)	3.14	14.6	0.623
N-TIMP2-A70HqAla (from UniProt P16035 27-153) (domain or fragment)	16.7	27.2	1.93
N-TIMP2-L100DOPA (from UniProt P16035 27-153) (domain or fragment)	1	14.2	0.849
N-TIMP2-A70DOPA (from UniProt P16035 27-153) (domain or fragment)	0.785	10.6	0.452

Now those with a lower Ki [1], led by results:

Ki [1] [nM]	Ki [2] [nM]	Ki [3] [nM]	Substance
0.606	11.5	0.449	N-TIMP2-S69HqAla (from UniProt P16035 27-153) (domain or fragment)
0.46	21.4	0.468	N-TIMP2-S69DOPA (from UniProt P16035 27-153) (domain or fragment)
0.413	4.72	0.543	N-TIMP2-Y36HqAla (from UniProt P16035 27-153) (domain or fragment)
